This is an account of results in the domain aggregation screens of Martell et al. (2025).

Some results are limits rather than exact numbers.
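Also: 20 min heating vs room temperature control held 20 min.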

A short description of the series: soluble fraction after stress (log2 fold change); higher = more stays soluble; pooled small domains, quantitative proteomics. Conditions: stress: 75 degC.
In the case of “HMSTDSTQLLGFNKTGEELPIYKEANEENKFAEIPQNVYVKNFGQNGEFTKIKYLDQEGYVKTAGLK”, the “soluble fraction (log2)” value is 0.955. As for “HMSTEEYDRGYEQGLEEAAKADDAWVANLIKIYSQNTPESMPETMKGRLDAFLYEQQRRAQSVPEM”, the figure is 0.918; as for “HMSTIAAMADPRAWALEMLGFPPGTVKPSKREIQVRFRESLRDVHPDHGGDSRTASASINDLSEARRVLLS”, -0.36. The result for “HMSTLGIRIKHYRTDSNLTQKELAGLINVKRDALANWETDRALPDVMNLKKLAEVFQVSTDELLQV” reads -1.02. In the case of “HMSTLTGTQRAAVVLMQMSPPNAARVMAQFTDAEAEEIAAEIVRLRKVDPEVAEQIMKDFHEAALSS”, the “soluble fraction (log2)” value was -0.226. Take “HMSTLTLTSGTYAVGENIKAGKYTIMGSGSIAISSSGKARVNSNLTADRKDYVLNDDETIKIKGKAQFIPI”: the “soluble fraction (log2)” value was -0.315. The result for “HMSTMKIVRVKSNLKIGQEITSKDIEVVEVGAYNMPSEVMKNSEDVIGKYASAEMIKGEYVLAAKISDTP” reads 0.151; that for “HMSTMNRLPRHEQILKLVRANGFMPIEELARLLDVTPQTIRRDINTLSEENLLRRFHGGAALGPSVE”, -0.371; that for “HMSTMTGTVDTPGASLNVRTGAWGPIVGQLAHGSKVTIIGSSGDWFKISYNGATRYVHKNYVNTT”, -0.683. The result for “HMSTMVEIPNVVGMTIKEAKEALGNLGLSISKISGSNEDSAIVTEVSPAPGSSVKRDESITLVGQPK” reads 0.683; that for “HMSTPAKVTPTNPIVKQLFNAAETQIKNKDIQNAIASYEKADTLTTDEKVKQYIHYQLSTLKDDN”, -0.0812; that for “HMSTPERQEVLDILKRQGEMTPLQIAGQISRTSKSVSNILSKLKREGFVANGAKYGSWVSTES”, -0.0675. “HMSTPTVDTKTKLDLYNLLYKKDLNYLDAYNFVLDNFGSDNIDIMFKMLGLDFTNWVIENKPE”: the “soluble fraction (log2)” value turned out to be 0.139. The result for “HMSTQYKTGHYKTTDALNLRASYSTSSNVLLTIPKGKTIVVTRVHNNEWGQVEYNGKTGWIYLEYTAYTES” reads -1.85; that for “HMSTSAAELLRTARQQAGMSQSAVAELAKTSQSAIAMYEAGNREPSLPVLQRLLAATGHQLSLSVLP”, -0.337.

On to “HMSTTILSFQNRVVIETLHNEGRSLRYIANYLGFSKATIFNELHRLNSEYRAELAQADFERKVSQR”, for which the “soluble fraction (log2)” value was -3.06. As for “HMSTVAETVYNEIRDDILYGELQPGVKLKLEALRERYSVGVNTLREVLNRLVASGFVFVEGQKGFRVV”, the figure is 0.365; as for “HMSTVEKDSELGGNFRIASYPTGKGQISEAIRSMIVRAKQVGVNIRLNTEATEEPLRALAPNAVILATG”, 0.188. The result for “HMSTVELPVQINGKVRGRITVPANAGQEDVKQAALADSKVQRYIEGASIRKVIVVPRKLVNIVV” reads -0.215; that for “HMSTVTGLINYLSSGLIKGVGEATARKLVDHFGLDVLDIIQFNPQRLLEVDGIGEARAEMIASSFSEQK”, -1.21; that for “HMSVDIIPGKADQKVRLIHDPAIVGVTTGGVKTAGPHTLIQIELGPNERPYKRLSLLELIPEG”, -0.347. The result for “HMSVDVGMQLRKLREERKISMRELARLSGLSANALSMIERGLTSPSVSTLNKLAGALEVPITAFFRI” reads -1.35; that for “HMSVEVPNLIGKTLDQVDIDLKSLDLSFVILDSARYNSSFKPLSVIDHQPISGAKVKVNRKIYLTINPS”, -0.411; that for “HMSVKIELNENEQAIFTAVQKVNEAVLPELRAQFSDMSNKAWDNSVKMLTKNNLLKVSKEGEILYIRM”, -1.22. For “HMSVKSVSLRKISYKVRRGDSLYNIAKNFSLSINDITHWNSINKKSYLQPGQRLTLYINPRN”, the “soluble fraction (log2)” value is -2.18. As for “HMSVKVFRDQILLNNDSDKMLQLSFSNLFGQKVLETSISPGKSAISTGNLPPGIYFITTSPATGVMRVII”, the figure is -1.78; as for “HMSVLRLGNRGPDVRKLQLLLNSTLVPSPQLTVDGDFGKRTEQAVVTFQQMRGLPQDGIVGQRTWALLGQT”, -0.652. For the sequence “HMSVLSVASKNQAINPGQVVALLKDGIKLNDDGRVEILDNNNNIRYNEKGNLLSIEERVKEFLDANPHFRQ”, the “soluble fraction (log2)” value is -0.399.

In the case of “HMSVLVLPMLKELTHEDREVVELFYLNDMSVREIALIISVPIGTVKSRLHRARAQLKHQIVNLNQ”, the “soluble fraction (log2)” value was -3.76.

Take “HMSVPVNAPMPGTILDIKVKAGAAVKAGDVVMILEAMKMENEISAPQDGTIASIDVRKGDTVNSGDVLYTM”: the “soluble fraction (log2)” value was -0.198. The result for “HMSVSVNAPMPGNILDVRAKTGESIQKGQVIVILEAMKMENEIMAPQDGKISSINTSKGSTVNSGDLLFTM” reads -0.106. The result for “HMSVTMPNLVGLDEQTAVTRINSSNLSYGSTNYVHSDHEAGVVFKQSTPAYTEVDEHTKIYIWVSLGPEE” reads -0.729. As for “HMSVTPLLDATEKDKTKYRDLWLVAVVKNGVNYARKYKFGYVYAWLYRHDRDWLLQVNNQHKIPNIT”, the figure is 0.0707; as for “HMSVTVMVLRAAGDIQAGTEITDKHLATVEVGEYGLPEGIINDKDSILGKIALTDIAKGDYFFSQKLG”, -0.954. “HMSVVKPIYIGMMTSEVEAIMGKPFEVITNNNSKNNQLWIYKYQDKRSVMLTFTNYKLIKIE”: the “soluble fraction (log2)” value is -2.7. As for “HMSWDNELLERAHKIIELYPQKRSALGPLLYLAQEKDGFISDDSIVEISNLVDITEVQVKSVSSFYSMY”, the figure is -0.903; as for “HMSWGDVKLTMWGAEEDQTMLREMADAFIEQNADKGNVTIEIGVQSESSAKDTVLADPESAADVFA”, 0.242; as for “HMSWRWVPVSGAYTTSALEAAGLTRAFDDQAAAEEWLGLFFDDLLREGVGEVSLYEEDRLVYGPMSL”, -2.49.

Regarding “HMSYANVEWRDFLNSLDEKYRIVVILYYVQGFKTREIAEILQINQSTVRGRLAKAREKLEQQYN”, the “soluble fraction (log2)” value is -1.4. In the case of “HMSYFIFDGVLNLGKQYELKGEESSHITKSRRLRPGDSFLIQDQEGQRFEAILKSFDRNSLIFTPHKPTA”, the “soluble fraction (log2)” value is -0.722.

As for “HMSYFNEYEVGDTIRVVNGPLADQISTITAIDKEKGLVNISTVFFGRENNVQVSINDIEKYN”, the “soluble fraction (log2)” value was found to be 0.0153. As for “HMSYGDLTGRTVVITGASKGIGARASRVLAQAGASVVGLARSVDELTALKYDLENDGLSFDFG”, the figure is no less than 1.04.

In the case of “HMSYKYYSTERPLMPGSFPKPQGNTVLNIENFNDRSYVGKIGREAWGFIEYEKPISPVLLDDYELVAA”, the “soluble fraction (log2)” value is -0.235.

As to “HMSYLELENLAEDIKATYDNLSTDLREVFRLSDIEGLSYEEISNKMNIPIGTVRSRLHRARETLLRIFNN”, the “soluble fraction (log2)” value was -1.39. As for “HMSYPTAVTQTTLNVRTGPGTQYERLGAFVENTEVIVLTRQPEWIQVRGMSGDKAIIGWVSARYLQMNP”, the figure is -2.21. As for “HMSYQNKLNYLINAFGGADNFQKLLGVGPSAISNYKSRKHLPLNQAKRLSKIAPQFGFSLDPHSLQIST”, the figure is -0.856. As for “HMSYQSYDKVVGDTFFEANLKAESKFGKGNFEIISTRRVKHPIYLGFGHKELVELTIGIHDP”, the figure is -1.33. For “HMSYTAYLSQELGDMSREIQSELLKKGYNGSSSFTIVRTYMGSSVKFSVYNANNGELITSKTINM”, the “soluble fraction (log2)” value was -2.9. The result for “HMSYTDIILKMSNVNFLTKVNFTNSEKNKNIKNGNFLIKKGKNRITAAFDYKDNELVISKSNLRNTFL” reads -1.18. The result for “HMTAEVIYVDVGGEVNQPSVVELTDGSRVTDAIAAAGGLTEKADLTDINRAAFVSDGEKIFIPSQEE” reads 0.4; that for “HMTAFAGLTPRERDLLELIAQGRDNAQIAATLGVSDKTVRNHITHIFAKLEVETRAQAIVLARNAGFGRA”, -1.12. As for “HMTAGYFTRGSHQDEVLRIQGTPSGVNKYSDHEVWNYGLSSVDISLRDRRVTEWNNISGNLKV”, the figure is -0.149; as for “HMTAKRELILRVFMDSNGKLLSIDDVFMEMRKKRSHRTSKMTVKRAIDLLVDLGLLKEVLFDDDNIKYEYV”, -1.26; as for “HMTALISGNKAMQMLELSRHSFEKIVKDGLLSIVHEGDKKYYEIGEVEAFMGSDTYKELVNGV”, 0.449. As to “HMTALSIGTVVRFTGDRHYISSTGDTGYPASPGLAKITSINPGSKHPYHLIHIDNTSNVYGWVNKQDIIT”, the “soluble fraction (log2)” value is -1.17.

Consider “HMTAQLSITLNGETRRAAAGSIADLVRSLELDPAKVAVERNGLIVPRSTLAEVALGDGDVLEIVHFV”, for which the “soluble fraction (log2)” value was -1. As to “HMTASTLSYSKFNEQVVQNQVRKVTFQGEQVKGELISGQTFTTTVPANDTTLWPMLKAHNVDTAVTAA”, the “soluble fraction (log2)” value stood at 0.186. With “HMTASVTDAMFELIDELPKLGKTSFRQLTADLVDRLQVVVTFLAVLELYKQGHVELDQSERFGDITVVWTG”, the “soluble fraction (log2)” value was determined as 0.208. As for “HMTATIEEVNELTQSARVNINVPYAAKDEAKAYGAKWDDVERTWYTTGENYAQNKDFFDGFNPTAS”, the figure is 0.583; as for “HMTATWLTYYRIKAGLTQKRLAELAGLNIRQVQKIENGETLAGNTTAKNLLALADALGIDPHKL”, -2.15. As for “HMTAYENSIPLNWVIQKGDAKGLPLSANTARLLIDIVGIDLMDLDHELEKISLYLSGESITEEMIKEHIRG”, the figure is -0.709; as for “HMTDAELDLLTPREQEVLQLIARGYLYKEIARRLGISVKTVEAHASSVLRKLQLSTRHELSHWAAQRH”, -0.0813.

As to “HMTDAYEVLDLNREASDEEIKKRYRELIREHHPDTLIAKGVPQEFVDLANDKMAAINAAYDRIEKDRGL”, the “soluble fraction (log2)” value turned out to be 0.56. The result for “HMTDEEKENLREKMLEAGFPLLKQYGMTHTSVAKITQAAGIAVGTFYSFWKNKEAYMADLIGYHRR” reads -1.27; that for “HMTDITSAITRLNKYNKSGTPLTIDSVTPEALQTLQAKVSSAFEIGAVNQQTYDDVTKDIATLQQYLSSA”, 0.378. As for “HMTDIVPNLIGKSLKDAIQSVEKSNLKAIFDGHGIVVSQQPRPGSPIPARKIMKVTLSPDYR”, the figure is -0.13. As for “HMTDKLEEEAKKKAMEDALADEMNISKTIVHDGIRELARIGFLDVISRKGIYVADYTFTGNLETLLAVIRY”, the figure is -0.848; as for “HMTDLDDFAARLKTLTDGRASTPRLRDGVMMLSLDVGGLGPDQRDGLIAAIREGGLTVPGVSDVRIVMT”, -0.125; as for “HMTDLEDDEKKVYRLIVESGEGIDFDTLSERSGFSATELPSILLFLMMKEMIDELPGKIYRYSE”, -0.0725.

Consider “HMTDMYLTYQELRHLGVSQNLISMWKSRKSIDFHMLGGTLYVRYMSIPEQTRSKLALQNVERVYNSRE”, for which the “soluble fraction (log2)” value was -2.6.
